Assay results: patent US20210198366A1 (NGM BIOPHARMACEUTICALS, published 2021)

B2: soluble human B7-H7-Fc fusion protein (extracellular region of human B7-H7, aa 23-344, and a human Fc sequence) (Fc fusion, not shown: a dimerising Fc or GST)
chain: IFPLAFFIYVPMNEQIVIGRLDEDIILPSSFERGSEVVIHWKYQDSYKVHSYYKGSDHLESQDPRYANRTSLFYNEIQNGNASLFFRRVSLLDEGIYTCYVGTAIQVITNKVVLKVGVFLTPVMKYEKRNTNSFLICSVLSVYPRPIITWKMDNTPISENNMEETGSLDSFSINSPLNITGSNSSYECTIENSLLKQTWTGRWTMKDGLHKMQSEHVSLSCQPVNDYFSPNQDFKVTWSRMKSGTFSVLAYYLSSSQNTIINESRFSWNKELINQSDFSMNLMDLNLSDSGEYLCNISSDEYTLLTIHTVHVEPSQETASHN
notes: also called hB7-H7-Fc; soluble B7-H7

Columns and labels:
[1] = biological target: T1, human B7-H7 expressed on the cell surface (human, UniProt Q9UM44 23-414); assay: cell-based fluorescence assay (CellInsight): soluble biotinylated KIR3DL3 ECD on cells transfected with B7-H7, Alexa Fluor 488 streptavidin detection; soluble biotinylated KIR3DL3 ECD on B7-H7-transfected cells
T1 construct: also called hB7-H7; HHLA2
T1 sequence: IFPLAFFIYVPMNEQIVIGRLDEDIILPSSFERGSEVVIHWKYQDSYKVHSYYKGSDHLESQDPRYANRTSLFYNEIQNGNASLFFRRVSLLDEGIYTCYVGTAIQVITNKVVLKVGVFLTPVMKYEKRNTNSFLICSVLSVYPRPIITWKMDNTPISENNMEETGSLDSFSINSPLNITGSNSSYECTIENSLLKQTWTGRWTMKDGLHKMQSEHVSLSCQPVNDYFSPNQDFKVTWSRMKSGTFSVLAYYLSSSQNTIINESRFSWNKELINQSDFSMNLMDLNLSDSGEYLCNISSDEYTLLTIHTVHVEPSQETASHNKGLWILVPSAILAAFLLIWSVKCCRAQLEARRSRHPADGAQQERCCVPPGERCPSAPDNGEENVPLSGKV
Procedure: (§1) The molecule CD28H has previously been identified as a receptor of B7-H7 (Zhu et al., 2013, Nature Communications, ncomms3043; Zhu et al. refer to B7-H7 as “B7-H5”). Studies by the inventors have identified KIR3DL3 as a second receptor for B7-H7. HEK-293T cells were transiently transfected with a KIR3DL3 construct. 40,000 cells were aliquoted into each well of a 384-well plate and were transfected with 200 ng of plasmid DNA encoding KIR3DL3 using Lipofectamine™ 2000 (ThermoFisher Scientific). After 48 hours, soluble B7-H7-Fc (serially diluted from 10 to 0.16 pg/ml) was added to the wells and plates were incubated from one hour at room temperature. An Alexa Fluor® 488-labeled anti-human Fc secondary antibody was added to the wells and plates were incubated for one hour at room temperature. Cells were washed with HBSS and fixed for 15 minutes with 7.4% formalin in PBS. Cells were washed with PBS and the fluorescence signals were detected using a CellInsight™ platform (ThermoFisher Scientific). A similar experiment was conducted with cells transiently transfected with a B7-H7 construct and soluble biotinylated KIR3DF3 ECD. An Alexa Fluor® 488-labeled streptavidin was used for detection.

[2] = biological target: T2, human KIR3DL3 expressed on the cell surface (human, UniProt Q8N743 26-410); assay: cell-based fluorescence assay (CellInsight): soluble B7-H7-Fc titrated on HEK-293T cells transfected with KIR3DL3, Alexa Fluor 488 anti-human Fc detection; soluble B7-H7-Fc on KIR3DL3-transfected cells
T2 construct: also called cells expressing human KIR3DL3
Procedure: as §1

[3] = biological target: T3, human B7-H7 (soluble analyte in SPR) (human, UniProt Q9UM44 23-344, limits assumed); assay: SPR (Biacore), antibody captured by anti-Fc on CM5 chip, B7-H7 injected, 37 C
T3 sequence: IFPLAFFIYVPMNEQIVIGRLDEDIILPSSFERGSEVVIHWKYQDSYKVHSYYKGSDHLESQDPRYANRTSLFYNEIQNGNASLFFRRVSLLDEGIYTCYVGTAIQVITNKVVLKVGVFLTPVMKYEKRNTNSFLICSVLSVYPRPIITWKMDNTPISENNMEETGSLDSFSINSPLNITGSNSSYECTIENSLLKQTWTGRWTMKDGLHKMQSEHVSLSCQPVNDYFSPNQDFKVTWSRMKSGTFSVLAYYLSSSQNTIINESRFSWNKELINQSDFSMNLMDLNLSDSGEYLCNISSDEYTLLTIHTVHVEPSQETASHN
Procedure: (§2) The binding affinities of exemplary anti-B7-H7 antibodies to human B7-H7 and cyno B7-H7 were measured using SPR technology (Biacore system, GE Healthcare Life Sciences). Briefly, anti-Fc antibody (Sigma-Aldrich) was immobilized on all four flow cells of a CM5 chip using amine coupling reagents (GE Healthcare LifeSciences). Exemplary antibodies were captured on flow cells 2, 3, and 4 using flow cell 1 as a reference. Human B7-H7 or cyno B7-H7 (samples ranging from 0.62-40 nM) were injected at a flow rate of 50 μL/min at 37° C. Kinetic data were collected over time and fit using the simultaneous global fit equation to yield affinity constants (KD values) for each antibody.

[4] = biological target: B2; assay: FACS competition: antibody titrated against soluble hB7-H7-Fc binding to HEK-293 cells expressing human KIR3DL3
Procedure: (§3) Exemplary anti-B7-H7 antibodies identified by ELISA and FACS were tested for their ability to block binding of soluble B7-H7 to receptors KIR3DL3 or CD28H in a FACS assay. HEK-293 cells were transiently transfected with a construct encoding (i) a membrane-bound KIR3DL3 protein or (ii) a membrane-bound CD28H protein. After 48 hours, transfected cells were suspended in ice cold PBS containing 1% FBS and 0.1% sodium azide and incubated on ice in the presence of […]/ml of soluble human B7-H7-Fc protein and antibodies 2D7, 1D3, 28F3, 16D5, 2F10, 5F7, 5B10, 5C9, or 3H6 (serially diluted from […] to 4.6 ng/ml). A second incubation with an anti-human Fc secondary antibody was performed to detect cells bound by the soluble B7-H7-Fc. The cells were analyzed on a BD FACSCalibur instrument (BD Biosciences) and the data was processed using FlowJo software. Calculated IC50s are shown Table 12.

[5] = biological target: T3, human B7-H7 (soluble analyte in SPR); assay: SPR (Biacore)
Procedure: as §2
The binding affinity of Hz2D7 to human B7-H7 and cyno B7-H7 was determined using SPR technology (Biacore system) as described herein and compared with the binding affinity of the parental antibody and with a chimeric 2D7 antibody comprising the murine heavy chain and light chain variable regions of 2D7 and a human Fc region.

[6] = biological target: T1, human B7-H7 expressed on the cell …; assay: cell-based or functional assay
[7] = biological target: B2; assay: FACS competition: antibody titrated against soluble hB7-H7-Fc binding to HEK-293 cells expressing human CD28H
Procedure: as §3

B1: soluble biotinylated KIR3DL3 ECD (receptor)
chain: QDKPFLSAWPGTVVSEGQHVTLQCRSRLGFNEFSLSKEDGMPVPELYNRIFRNSFLMGPVTPAHAGTYRCCSSHPHSPTGWSAPSNPVVIMVTGVHRKPSLLAHPGPLVKSGETVILQCWSDVRFERFLLHREGITEDPLRLVGQLHDAGSQVNYSMGPMTPALAGTYRCFGSVTHLPYELSAPSDPLDIVVVGLYGKPSLSAQPGPTVQAGENVTLSCSSRSLFDIYHLSREAEAGELRLTAVLRVNGTFQANFPLGPVTHGGNYRCFGSFRALPHAWSDPSDPLPVSVTGNSRHL
modifications: biotinylated (site not stated)
notes: also called soluble biotinylated KIR3DF3 ECD (so in the source); soluble KIR3DL3
[1]
  Kd: 192 nM

## B2
[2]
  Kd: 15 nM

B3: anti-B7-H7 antibody 2D7 (antibody, V domains shown)
VH: EVQLQQSGPELVKPGASVKISCKTSGYTFTEYTMHWVKQSHGKSLEWIGGINPNNYGAPYNQKFKGKATLTVDKSSNTAYMELRSLTSEDSAIYYCASGGYYFDYWGQGTTLTVSS
VL: DIVMTQSHKFMSTSFGDRVSITCKASQDVGTAVAWYQQKLGQSPKLLISWAFTRHTGVPDRFTGSGSGTDYTLTISSLQAEDLALYYCQQHYDTPFTFGSGTKLEIK
notes: Parental mouse hybridoma antibody raised against human B7-H7-Fc
[3]
  Kd: < 0.1 nM
[4]
  IC50: 2 nM
[5]
  Kd: < 0.1 nM
  koff: 1e-05 s⁻¹
[6]
  Induction of NK-92 cytotoxicity EC50: 1 nM
[7]
  IC50: 2.1 nM
